Article PMC11118710, “GLP-1 and Its Derived Peptides Mediate Pain Relief Through Direct TRPV1 Inhibition Without Affecting Thermoregulation” (Research Square, 2024)

Target: human transient receptor potential vanilloid 1 (TRPV1) (human) (UniProt Q8NER1)
Sequence (Q8NER1 whole entry): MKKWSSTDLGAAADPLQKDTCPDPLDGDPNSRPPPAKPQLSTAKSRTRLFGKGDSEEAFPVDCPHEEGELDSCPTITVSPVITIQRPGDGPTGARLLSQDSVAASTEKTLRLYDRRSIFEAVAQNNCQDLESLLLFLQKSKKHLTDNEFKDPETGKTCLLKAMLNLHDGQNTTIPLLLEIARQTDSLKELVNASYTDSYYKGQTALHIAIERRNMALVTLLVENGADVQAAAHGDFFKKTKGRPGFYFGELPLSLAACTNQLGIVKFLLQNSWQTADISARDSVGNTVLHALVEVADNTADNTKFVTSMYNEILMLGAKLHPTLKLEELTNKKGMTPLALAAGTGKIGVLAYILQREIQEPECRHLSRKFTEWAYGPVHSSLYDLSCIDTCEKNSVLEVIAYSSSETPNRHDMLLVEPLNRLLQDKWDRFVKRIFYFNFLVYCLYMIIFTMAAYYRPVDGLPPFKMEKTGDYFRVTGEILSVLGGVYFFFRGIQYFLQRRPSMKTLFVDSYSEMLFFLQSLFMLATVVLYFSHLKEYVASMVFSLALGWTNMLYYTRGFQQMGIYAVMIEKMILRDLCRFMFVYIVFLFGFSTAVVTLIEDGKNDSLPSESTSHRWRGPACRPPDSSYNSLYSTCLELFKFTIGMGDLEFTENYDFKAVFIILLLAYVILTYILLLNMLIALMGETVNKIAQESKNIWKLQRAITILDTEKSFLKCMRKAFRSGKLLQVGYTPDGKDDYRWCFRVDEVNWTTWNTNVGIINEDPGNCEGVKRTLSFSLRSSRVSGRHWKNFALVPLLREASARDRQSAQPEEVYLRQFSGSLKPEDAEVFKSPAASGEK

## exendin-4 (from UniProt P26349 48-87) (peptide)
  IC50 of inhibition of the CAP (100 nM)-induced calcium response in CHO K1 cells expressing human TRPV1: 0.0622 µM
